Like-named read-outs stand apart in the source and are kept apart here.
How the values were obtained:
[1] = molecular target: T1, IL-6 receptor on DS-1 cells (ATCC CRL 11102) (UniProt P08887 20-468, limits assumed); assay: cell-based or functional assay
T1 sequence (looked up): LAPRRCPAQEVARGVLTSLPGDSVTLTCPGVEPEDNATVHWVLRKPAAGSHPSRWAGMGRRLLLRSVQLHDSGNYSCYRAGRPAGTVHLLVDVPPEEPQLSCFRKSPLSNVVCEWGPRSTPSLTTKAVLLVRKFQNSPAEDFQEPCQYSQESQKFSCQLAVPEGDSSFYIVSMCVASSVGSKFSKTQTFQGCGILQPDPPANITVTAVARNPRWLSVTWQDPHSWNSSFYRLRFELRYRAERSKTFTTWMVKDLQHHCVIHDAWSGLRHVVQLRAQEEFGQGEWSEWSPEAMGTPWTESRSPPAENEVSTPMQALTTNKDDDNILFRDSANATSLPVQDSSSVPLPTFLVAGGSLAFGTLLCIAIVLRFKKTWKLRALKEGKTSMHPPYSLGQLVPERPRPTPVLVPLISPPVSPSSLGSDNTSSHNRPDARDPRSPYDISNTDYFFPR

[2] = molecular target: T2, sIL-6R (soluble IL-6 receptor; SBH Sciences) (human, UniProt P08887 20-365); assay: SPR (BIAcore 3000), antibody on chip, sIL-6R analyte, 25 C
T2 construct: also called human IL-6R
T2 sequence: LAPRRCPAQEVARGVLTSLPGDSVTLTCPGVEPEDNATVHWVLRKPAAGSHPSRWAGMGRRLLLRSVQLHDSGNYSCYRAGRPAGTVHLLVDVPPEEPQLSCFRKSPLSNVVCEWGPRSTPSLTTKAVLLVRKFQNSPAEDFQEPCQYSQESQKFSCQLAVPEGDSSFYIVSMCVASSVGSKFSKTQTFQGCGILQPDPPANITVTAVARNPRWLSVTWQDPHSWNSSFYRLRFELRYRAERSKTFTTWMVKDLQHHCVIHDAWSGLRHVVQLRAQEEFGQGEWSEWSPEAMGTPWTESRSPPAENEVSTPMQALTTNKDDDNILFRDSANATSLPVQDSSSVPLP
Summary of the method: (§1)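 Antibody immobilized on chip, sIL-6R injected as analyte for 3 min at 30 μL/min, then buffer-only dissociation for 500 s. Surface regenerated with 1M formic acid between cycles. Kinetics obtained by fitting sensorgrams with Kinetics Wizard and manual fitting.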

[3] = molecular target: T2, sIL-6R (soluble IL-6 receptor; SBH …); assay: as above; remark: listed apart in the source
Experimental: (§2) All SPR measurements were performed on a BIAcore 3000 instrument (GE Biosciences, Piscataway, N.J.). BIAcore Software-BIAcore 3000 Control Software V3.2 was used for the operation and control of the BIAcore 3000 instrument. BiaEvaluation Software V4.1 was used for the analysis of SPR data from the BIAcore 3000 instrument and data was plotted using Graph Pad Prism Software Version 5. […] The indicated antibodies were used as the ligand for the construction of the reference channel of the chip. […] Each sample was injected for 3 min at a flow rate of 30 μL/min to allow for binding to chip-bound antibody. Next, binding buffer without analyte was sent over the chip at the same flow rate to allow for dissociation of bound analyte. After 500s, remaining bound analyte was removed by injecting regeneration solution (1M Formic acid). Data was analyzed by using the Kinetics Wizard and the manual fitting programs that are both included with the BiaEvaluation Software V4.1.

[4] = molecular target: T2, sIL-6R (soluble IL-6 receptor; SBH …); assay: as above; remark: listed apart in the source
Experimental: as §2

[5] = molecular target: T2, sIL-6R (soluble IL-6 receptor; SBH …); assay: as above; remark: listed apart in the source
Summary of the method: as §1

[6] = molecular target: T2, sIL-6R (soluble IL-6 receptor; SBH …); assay: as above; remark: listed apart in the source
Experimental: as §2

[7] = molecular target: T2, sIL-6R (soluble IL-6 receptor; SBH …); assay: SPR (BIAcore 3000), antibody on chip, sIL-6R analyte, pH 6.0
Experimental: as §2
(§3) SPR measurements at pH 7.4 and pH 6.0 were performed in parallel and KD values calculated according to the protocol as detailed in Example 1. The pH dependence is calculated as the ratio between the KD value at pH 6.0 and the KD value at pH 7.4, which indicates the fold of affinity decrease from the pH7.4 to pH6.0. If the pH dependence of a subject antibody described herein is over 1, it means that the antibody binds to IL-6R in such a pH-dependent manner that its binding to IL-6R at pH7.4 is higher than at pH6.0. If the pH dependence of a subject antibody described herein is lower than 1, it means that the antibody binds to IL-6R in such a pH-dependent manner that its binding to IL-6R at pH6.0 is higher than at pH7.4.

[8] = molecular target: T2, sIL-6R (soluble IL-6 receptor; SBH …); assay: SPR (BIAcore 3000), antibody on chip, sIL-6R analyte, pH 7.4
Experimental: as §2, §3

[9] = molecular target: T2, sIL-6R (soluble IL-6 receptor; SBH …); assay: SPR (BIAcore 3000), antibody on chip, sIL-6R analyte, pH 6.0; remark: listed apart in the source
Experimental: as §2, §3

[10] = molecular target: T2, sIL-6R (soluble IL-6 receptor; SBH …); assay: SPR (BIAcore 3000), antibody on chip, sIL-6R analyte, pH 7.4; remark: listed apart in the source
Experimental: as §2, §3

[11] = molecular target: T2, sIL-6R (soluble IL-6 receptor; SBH …); assay: SPR (BIAcore 3000), antibody on chip, sIL-6R analyte, pH 7.4; pH 7.4
Experimental: as §2
(§4) SPR measurements at pH 7.4 and pH 6.0 were performed in parallel and KD values calculated according to the protocol as detailed in Example 1. The pH dependence is calculated as the ratio between the KD value at pH 6.0 and the KD value at pH 7.4, which indicates the fold of affinity decrease from the pH7.4 to pH6.0. […]

[12] = molecular target: T2, sIL-6R (soluble IL-6 receptor; SBH …); assay: as above; remark: listed apart in the source
[13] = molecular target: T2, sIL-6R (soluble IL-6 receptor; SBH …); assay: SPR; ratio of KD at pH 6.0 to KD at pH 7.4; averaged between the two batches
Experimental: as §2, §4

B1: Tocilizumab (antibody, human IgG1, kappa, V domains shown)
VH: QVQLQESGPGLVRPSQTLSLTCTVSGYSITSDHAWSWVRQPPGRGLEWIGYISYSGITTYNPSLKSRVTMLRDTSKNQFSLRLSSVTAADTAVYYCARSLARTTAMDYWGQGSLVTVSS
VL: DIQMTQSPSSLSASVGDRVTITCRASQDISSYLNWYQQKPGKAPKLLIYYTSRLHSGVPSRFSGSGSGTDFTFTISSLQPEDIATYYCQQGNTLPYTFGQGTKVEIKR
notes: also called 25; 25(control)
- IC50 (µg/ml), inhibition of DS-1 cell proliferation, MTS assay, IL6 2 ng/mL [1]: 0.33 µg/mL
- Kd [2]: 1.34 nM
- Relative Affinity [2]: 1 fold vs 25 (Tocilizumab)
- koff [2]: 0.000252 s⁻¹
- kon [2]: 188000 M⁻¹ s⁻¹
- Kd [3]: 1.71 nM
- Relative Affinity [3]: 1 fold vs 25 (Tocilizumab)
- koff [3]: 0.000353 s⁻¹
- kon [3]: 207000 M⁻¹ s⁻¹
- Kd [4]: 2.85 nM
- Relative Affinity [4]: 1 fold vs 25 (Tocilizumab)
- koff [4]: 0.000349 s⁻¹
- kon [4]: 122000 M⁻¹ s⁻¹
- Kd [5]: 3.16 nM
- Relative Affinity [5]: 1 fold vs 25 (Tocilizumab)
- koff [5]: 0.000341 s⁻¹
- kon [5]: 108000 M⁻¹ s⁻¹
- Kd [6]: 2.8 nM
- Relative Affinity [6]: 1 fold vs 25 (Tocilizumab)
- koff [6]: 0.00035 s⁻¹
- kon [6]: 125000 M⁻¹ s⁻¹
- Kd [7]: 2 nM
- koff [7]: 0.000564 s⁻¹
- kon [7]: 283000 M⁻¹ s⁻¹
- Kd [8]: 2.85 nM
- koff [8]: 0.000349 s⁻¹
- Kd [9]: 1.79 nM
- koff [9]: 0.000566 s⁻¹
- kon [9]: 316000 M⁻¹ s⁻¹
- koff [10]: 0.000341 s⁻¹
- kon [10]: 108000 M⁻¹ s⁻¹
- kon [11]: 122000 M⁻¹ s⁻¹
- Kd [12]: 3.16 nM
- pH dependence (Fold of affinity decrease) [13]: 0.48 fold

Source: patent publication US20190315854A1 (BEIJING VDJBIO, published 2019)
